Data taken from PMC2841647 (PLoS ONE, 2010).

Key:
[1] = Brain localization after intravenous injections (immunohistochemistry); type: in vivo, mouse; conditions: mice; four hours after the last intravenous injection; cortex, hippocampus, striatum, nucleus accumbens
Procedure: Mice were injected twice with 200 µg of biotinylated tat-cyclotraxin-B. […] Brains were postfixed for 1 h in 4% paraformaldehyde and cut in 40-µm sections with a vibratome. Sections obtained at the same levels as for in vivo KIRA-ELISA analysis (see Fig. S8) were rinsed in PBS and incubated in TBS containing 0.05% Tween-20 with VectaStain ABC Elite kit (Vector Laboratories). […] Non-injected mice were used as negative controls for endogenous biotin.

[2] = target: T1, native TrkB receptors in cortical neurons (Mus musculus, UniProt P15209); assay: KIRA-ELISA (TrkB tyrosine phosphorylation) in primary cortical neurons; type: cell-based; conditions: cortical neurons, with or without 4 nM BDNF
T1 construct: cortical neurons naturally express TrkB receptors; endogenous in cells; host or cells: primary cortical neurons from E16 mouse embryos
T1 sequence (P15209 32-821): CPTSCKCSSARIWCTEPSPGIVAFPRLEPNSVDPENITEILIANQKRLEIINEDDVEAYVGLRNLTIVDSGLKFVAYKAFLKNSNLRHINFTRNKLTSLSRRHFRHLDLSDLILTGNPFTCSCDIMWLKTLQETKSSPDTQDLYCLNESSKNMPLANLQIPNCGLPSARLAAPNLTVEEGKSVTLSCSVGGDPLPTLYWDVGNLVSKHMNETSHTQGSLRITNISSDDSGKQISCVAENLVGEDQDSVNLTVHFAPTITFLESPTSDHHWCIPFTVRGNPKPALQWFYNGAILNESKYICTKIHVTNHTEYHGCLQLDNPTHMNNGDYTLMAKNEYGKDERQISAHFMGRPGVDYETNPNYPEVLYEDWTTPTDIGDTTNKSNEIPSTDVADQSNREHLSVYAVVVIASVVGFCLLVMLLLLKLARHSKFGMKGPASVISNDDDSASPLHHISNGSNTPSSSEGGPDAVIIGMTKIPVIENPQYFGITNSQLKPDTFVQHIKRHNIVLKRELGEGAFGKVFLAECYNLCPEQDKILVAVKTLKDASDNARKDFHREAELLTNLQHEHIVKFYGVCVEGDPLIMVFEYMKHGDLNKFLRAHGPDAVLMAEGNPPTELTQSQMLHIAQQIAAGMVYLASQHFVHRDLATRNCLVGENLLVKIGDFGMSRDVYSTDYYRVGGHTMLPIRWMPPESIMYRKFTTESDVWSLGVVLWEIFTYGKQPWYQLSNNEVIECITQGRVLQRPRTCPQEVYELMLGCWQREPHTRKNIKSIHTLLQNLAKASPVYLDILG
Text: The human recombinant TrkB receptor was fluorescently tagged at its C-terminus with the Enhanced cyan fluorescent protein (rhTrkB-ECFP) by cloning the full human TrkB sequence (kindly provided by G. M. Brodeur) into the pECFP-N1 expression vector (Clontech). For inducible expression, rhTrkB-ECFP was subcloned into the tetracycline-responsive (TetOn) vector pTRE2 (Clontech). Chinese Hamster Ovary cells stably expressing rhTrkB-ECFP (TetOn-rhTrkB cells), were produced by transfection of the pTRE2-rhTrkB-ECFP plasmid into CHO-K1 TetOn cells (Clontech) followed by clone selection in 0.25 mg/ml hygromycin B (Invitrogen) and 0.1 mg/ml geneticin (G418; Invitrogen). Resistant cells were selected based on both fluorescence intensity and KIRA-ELISA profile after an overnight incubation in presence of 1000 ng/ml doxycycline (Clontech). Cortical neurons were prepared and cultured from E16 mouse embryos as described previously. The nnr5 PC12-TrkA, nnr5 PC12-TrkB and nnr5 PC12-TrkC cells (kindly provided by M. V. Chao) are NGF non-responding mutant PC12 cells stably transfected with TrkA, TrkB and TrkC cDNA, respectively.
TrkB activity was quantified using the previously described KIRA-ELISA assay with slight modifications. Cortical neurons were seeded on polyornithin-coated flat-bottom 96-well culture plates (12×10^4 cells per well) and cultured eight days at 37°C in 5% CO2. TetOn-rhTrkB cells were seeded on flat-bottom 96-well culture plates (4×10^4 cells per well) and incubated overnight with 1000 ng/ml doxycycline (Figs. S1,S2) except when indicated. Fluorescence levels in TetOn-rhTrkB cells were verified before each assay. […] Assay was stopped by removing the medium on ice and membranes were solubilized using KIRA-ELISA solubilization buffer (NaCl 150 mM, Hepes 50 mM, Triton X-100 0.5%, thimerosal 0.01%, sodium orthovanadate 2 mM, supplemented with a cocktail of protease inhibitors) for 1 h at room temperature. Solubilized membranes were transferred for 2 h at room temperature onto ELISA microtiter plate (Nunc Maxisorp) pre-coated overnight at 4°C with appropriate antibodies [polyclonal anti-GFP (1∶5000, Clontech) for TetOn-rhTrkB, polyclonal anti-TrkB (1 µg/ml, Upstate) for cultured neurons and brain slices, for phosphorylation assays; monoclonal anti-GFP (1∶3000, Chemicon) for TetOn-rhTrkB, monoclonal anti-TrkB (1∶1000, BD Biosciences) for cultured neurons and brain slices, for total TrkB quantification]. […] Absorbance was read at 450 nm after addition of 3,3′,5′,5-tetramethyl-benzidine substrate (Sigma) and acidification with 1N hydrochloric acid.
Concentration-response and competition curves were obtained using an iterative least-squares method derived from that of Parker & Waud (1971). […] Concentration-response curves and Eadie-Hofstee plots were analyzed using two-way ANOVA. Significance over time in locomotor activity studies was given using two-way ANOVA followed by Bonferroni's post-hoc test. […] One-way ANOVA followed by post-hoc Dunnett's test was used to evaluate statistical significance compare to saline group in EPM and FST procedures. n represents the number of independent experiments.

mice = assay: Forced swim test (FST); type: in vivo, mouse; conditions: acute treatment
Procedure: Mice were treated as described above before being subjected to behavioral studies. Predictive estimation for anxiolytic properties of tat-cyclotraxin-B was assessed using open field and elevated plus-maze (EPM). Antidepressant-like action of tat-cyclotraxin-B was assessed with the forced-swim test (FST). Effects of acute treatment with tat-cyclotraxin-B on spontaneous locomotion, exploration and reactivity to a novel open field was assessed in plexiglas activity chambers (Med Associates; 45×45×31 cm). Mice were placed into the center of the open field, and activity was recorded for 30 min. Testing took place under bright ambient light conditions to increase the anxiety component of the center areas of the field (defined as the central 15×15 cm portion). Mice subjected to EPM received a double 90-interval i.v. injection of tat-cyclotraxin-B or saline buffer before being placed on the platform of the EPM and assessed for 5 min (26×5×36 cm). The diazepam control group consisted of saline buffer double-treated mice that further received a 30-min i.p. injection of diazepam (1 mg/kg). Mice were assessed for number of entries and amount of time spent in open versus closed arms. The FST procedure was applied to treated mice as described by Porsolt et al. (see ref. [60]). Mice were dropped individually into glass cylinder (height, 25 cm; diameter, 10 cm) containing 10 cm water height, maintained at 23–25°C. Animals were tested for a total of 6 min. The total time of swimming, the number of climbing attempts and the time of immobility was recorded during the last 4 min of the session, after 2 min of habituation. The paroxetine control group consisted of saline buffer double-treated mice that further received a 30-min i.p. injection of paroxetine (2 mg/kg). Behaviors were recorded on videotape and scored blind.

YGRKKRRQRRRCNPMGYTKEGC [tat-cyclotraxin-B]
detection in brain after intravenous injection [1]: detected in many brain structures
TrkB inhibition compared with cyclotraxin-B [2]: similarly to cyclotraxin-B
FST swimming capabilities (mice): not affected
FST climbing attempts (mice; vs saline): not observed
FST time of immobility (mice; vs saline): not observed
